Experimental data reported in patent US20240317834A1, “COMPOSITIONS AND METHODS FOR NEUROLOGICAL DISEASES” (CODA BIOTHERAPEUTICS, INC., priority 2020, published 2024).

Test system: Lenti-X 293T cells
Test: YFP fluorescence quenching anion reporter plate reader assay of engineered receptors stimulated with acetylcholine or a non-native ligand
Format: cell-based
Settings: for percent quench of YFP fluorescence, 30 nM TC-6683: TC-6683 30 nM; for percent quench of YFP fluorescence, 300 nM TC-6683: TC-6683 300 nM; for percent quench of YFP fluorescence, 3 uM TC-6683: TC-6683 3 uM; for percent quench of YFP fluorescence, 30 uM TC-6683: TC-6683 30 uM; for percent quench of YFP fluorescence, 100 uM TC-6683: TC-6683 100 uM; for percent quench of YFP fluorescence, 10 uM ach: acetylcholine 10 uM; for percent quench of YFP fluorescence, 100 uM ach: acetylcholine 100 uM; for percent quench of YFP fluorescence, 1 mM ach: acetylcholine 1 mM; for percent quench of YFP fluorescence, 3 mM ach: acetylcholine 3 mM
Source text: To screen these mutant LGICs for those having novel response profiles to ligands, an anion reporter assay was developed to assess the function of the LGICs in a high throughput format. In this assay, cells expressing a YFP reporter whose fluorescence is quenched in the presence of anion are transfected with DNA encoding the channel of interest. Upon exposure to ligand, channels that are activated will flux anion, resulting in a dose-dependent quench of the YFP that can be detected on a plate reader. The greater the quench signal (i.e., the more positive the value), the higher the ligand activity on the receptor is.
Lenti-X 293T cells (LX293T, Clontech) were maintained in DMEM containing 10% FBS and 1% penicillin/streptomycin (Invitrogen). […] Two days before assay, cells were split at a density of 20,000 cells/well in a 96-well tissue culture plate coated with poly-d lysine (Thermo Scientific). The next day, the cells were transiently transfected with 0.1 μg of DNA per well using standard Fugene protocol (Promega). On the day of assay, cells were washed 2 times in 1× extracellular solution (1×ECS: 140 mM NaCl, 5 mM KCl, 1 mM MgCl2, 2 mM CaCl2), 10 mM HEPES, 10 mM glucose, pH 7.2, mOsms 300). After the last wash, 100 μL of 1×ECS was added to the wells and the plate was incubated at 37° C. for 30 min. While incubating the plate, the drugs were diluted to a 2× concentration in 1×ECS-NaI (same components as 1×ECS except the 140 mM NaCl was replaced by 140 mM NaI). The plates were then read on a Flexstation3 (Molecular Devices). Each well, 8 wells at a time, of the plate is read for 2 min using a Flexstation3 (Molecular Devices) as follows: 1) a baseline YFP fluorescence is read for 17 sec, 2) 100 μL of ligand is added, and 3) the changes in YFP fluorescence are then measured every 1.3 sec for 1 minute and 43 seconds. The percent quench is calculated from the average fluorescence of the last 10 seconds of the read divided by the baseline average of the first 15 seconds prior to the ligand addition.
FIGS. 1A-1J provide heat maps of the percent quench of YFP fluorescence following stimulation by various doses of either acetylcholine or the non-native ligand as indicated in the Figures. CODA71 (SEQ ID NO: 33) was used as a control, and CODA75 (SEQ ID NO: 29, a non-responding chimeric engineered receptor) was used as the negative control. Quenching of the fluorescence signal, as indicated by blue shaded cells, indicate the level of engineered receptor activation by the non-native ligand at that concentration.

B1: CODA325: engineered chimeric LGIC receptor, L131G in SEQ ID NO: 33 (protein)
chain: MRCSPGGVWLALAASLLHVSLQGEFQRKLYKELVKNYNPLERPVANDSQPLTVYFSLSLLQIMDVDEKNQVLTTNIWLQMSWTDHYLQWNVSEYPGVKTVRFPDGQIWKPDILLYNSADERFDATFHTNVGVNSSGHCQYLPPGIFKSSCPMDLKNFPMDVQTCKLKFGSWSYGGWSLDLQMQEADISGYIPNGEWDLVGIPGKRSERFYECCKEPYPDVTFTVTMRRRMGYYLIQMYIPSLLIVILSWISFWINMDAAPARVGLGITTVLTMTTQSSGSRASLPKVSYVKAIDIWMAVCLLFVFSALLEYAAVNFVSRQHKELLRFRRKRRHHKSPMLNLFQEDEAGEGRFNFSAYGMGPACLQAKDGISVKGANNSNTTNPPPAPSKSPEEMRKLFIQRAKKIDKISRIGFPMAFLIFNMFYWIIYKIVRREDVHNQ
modifications: synthetic sequence of chimeric LGIC
- YFP fluorescence quenching using CNL001 (1 nM CNL001, first column): 74.429%
- YFP fluorescence quenching using CNL001 (1 nM CNL001, second column): 78.715%
- YFP fluorescence quenching using TC-5619/Bradanicline (3 nM brd): 68.45%
- YFP fluorescence quenching using Varenicline (3 nM var, first column): −12.241
- YFP fluorescence quenching using Varenicline (3 nM var, second column): −9.415
- YFP fluorescence quenching using CNL001 (10 nM CNL001, first column): 79.033%
- YFP fluorescence quenching using CNL001 (10 nM CNL001, second column): 79.322%
- YFP fluorescence quenching using TC-5619/Bradanicline (30 nM brd): 76.95%
- YFP fluorescence quenching using Facinicline (30 nM fac): 75.75
- YFP fluorescence quenching using Varenicline (30 nM var, first column): 75.334
- YFP fluorescence quenching using Varenicline (30 nM var, second column): 72.278
- YFP fluorescence quenching using CNL001 (50 nM CNL001, first column): 79.966%
- YFP fluorescence quenching using CNL001 (50 nM CNL001, second column): 80.091%
- YFP fluorescence quenching using ABT-126 (50 nM abt): −17.39%
- YFP fluorescence quenching using CNL001 (100 nM CNL001, first column): 81%
- YFP fluorescence quenching using CNL001 (100 nM CNL001, second column): 79.701%
- YFP fluorescence quenching using CNL002 (100 nM CNL002): 45.62%
- YFP fluorescence quenching using ABT-126 (100 nM abt): 6.89%
- YFP fluorescence quenching using AZD-0328 (100 nM azd0328): 79.75%
- YFP fluorescence quenching using ABT-126 (300 nM abt): 38.65%
- YFP fluorescence quenching using AZD-0328 (300 nM azd0328): 80.62%
- YFP fluorescence quenching using TC-5619/Bradanicline (300 nM brd): 77.1%
- YFP fluorescence quenching using Facinicline (300 nM fac): 78.01
- YFP fluorescence quenching using Varenicline (300 nM var, first column): 78.305
- YFP fluorescence quenching using Varenicline (300 nM var, second column): 77.83
- YFP fluorescence quenching using Varenicline (500 nM var, first column): 75.936
- YFP fluorescence quenching using Varenicline (500 nM var, second column): 76.788
- YFP fluorescence quenching using CNL001 (1 uM CNL001, first column): 79.289%
- YFP fluorescence quenching using CNL001 (1 uM CNL001, second column): 80.581%
- YFP fluorescence quenching using CNL002 (1 uM CNL002): 74.72%
- YFP fluorescence quenching using ABT-126 (1 uM abt): 45.82%
- YFP fluorescence quenching using TC-6987 (1 uM tc6987): 64.59
- YFP fluorescence quenching using Varenicline (1 uM var, first column): 77.805
- YFP fluorescence quenching using Varenicline (1 uM var, second column): 77.352
- YFP fluorescence quenching using TC-6987 (10 uM tc6987): 76.28
- YFP fluorescence quenching using CNL002 (30 uM CNL002): 77.4%
- YFP fluorescence quenching using AZD-0328 (30 uM azd0328): 80.19%
- YFP fluorescence quenching using Facinicline (30 uM fac): 76.61
- YFP fluorescence quenching using TC-6987 (500 uM tc6987): 70.95
- percent quench of YFP fluorescence, 30 nM TC-6683: −21.27%
- percent quench of YFP fluorescence, 300 nM TC-6683: −18.33%
- percent quench of YFP fluorescence, 3 uM TC-6683: −7.03%
- percent quench of YFP fluorescence, 30 uM TC-6683: 56.84%
- percent quench of YFP fluorescence, 100 uM TC-6683: 64.51%
- percent quench of YFP fluorescence, 10 uM ach: 5.66%
- percent quench of YFP fluorescence, 100 uM ach: 74.07%
- percent quench of YFP fluorescence, 1 mM ach: 62.65%
- percent quench of YFP fluorescence, 3 mM ach: 69.49%

B2: CODA326: engineered chimeric LGIC receptor, L131A in SEQ ID NO: 33 (protein)
chain: MRCSPGGVWLALAASLLHVSLQGEFQRKLYKELVKNYNPLERPVANDSQPLTVYFSLSLLQIMDVDEKNQVLTTNIWLQMSWTDHYLQWNVSEYPGVKTVRFPDGQIWKPDILLYNSADERFDATFHTNVAVNSSGHCQYLPPGIFKSSCPMDLKNFPMDVQTCKLKFGSWSYGGWSLDLQMQEADISGYIPNGEWDLVGIPGKRSERFYECCKEPYPDVTFTVTMRRRMGYYLIQMYIPSLLIVILSWISFWINMDAAPARVGLGITTVLTMTTQSSGSRASLPKVSYVKAIDIWMAVCLLFVFSALLEYAAVNFVSRQHKELLRFRRKRRHHKSPMLNLFQEDEAGEGRFNFSAYGMGPACLQAKDGISVKGANNSNTTNPPPAPSKSPEEMRKLFIQRAKKIDKISRIGFPMAFLIFNMFYWIIYKIVRREDVHNQ
modifications: synthetic sequence of chimeric LGIC
- YFP fluorescence quenching using CNL001 (1 nM CNL001, first column): 76.424%
- YFP fluorescence quenching using CNL001 (1 nM CNL001, second column): 80.567%
- YFP fluorescence quenching using TC-5619/Bradanicline (3 nM brd): 72.24%
- YFP fluorescence quenching using Varenicline (3 nM var, first column): −5.939
- YFP fluorescence quenching using Varenicline (3 nM var, second column): −2.294
- YFP fluorescence quenching using CNL001 (10 nM CNL001, first column): 80.284%
- YFP fluorescence quenching using CNL001 (10 nM CNL001, second column): 81.232%
- YFP fluorescence quenching using TC-5619/Bradanicline (30 nM brd): 77.4%
- YFP fluorescence quenching using Facinicline (30 nM fac): 69.94
- YFP fluorescence quenching using Varenicline (30 nM var, first column): 68.663
- YFP fluorescence quenching using Varenicline (30 nM var, second column): 70.718
- YFP fluorescence quenching using CNL001 (50 nM CNL001, first column): 81.575%
- YFP fluorescence quenching using CNL001 (50 nM CNL001, second column): 82.544%
- YFP fluorescence quenching using ABT-126 (50 nM abt): −21.91%
- YFP fluorescence quenching using CNL001 (100 nM CNL001, first column): 81%
- YFP fluorescence quenching using CNL001 (100 nM CNL001, second column): 81.718%
- YFP fluorescence quenching using CNL002 (100 nM CNL002): 27.88%
- YFP fluorescence quenching using ABT-126 (100 nM abt): −0.5%
- YFP fluorescence quenching using AZD-0328 (100 nM azd0328): 80.39%
- YFP fluorescence quenching using ABT-126 (300 nM abt): 34.86%
- YFP fluorescence quenching using AZD-0328 (300 nM azd0328): 82.07%
- YFP fluorescence quenching using TC-5619/Bradanicline (300 nM brd): 78.02%
- YFP fluorescence quenching using Facinicline (300 nM fac): 80.07
- YFP fluorescence quenching using Varenicline (300 nM var, first column): 79.88
- YFP fluorescence quenching using Varenicline (300 nM var, second column): 79.742
- YFP fluorescence quenching using Varenicline (500 nM var, first column): 79.311
- YFP fluorescence quenching using Varenicline (500 nM var, second column): 80.029
- YFP fluorescence quenching using CNL001 (1 uM CNL001, first column): 82.334%
- YFP fluorescence quenching using CNL001 (1 uM CNL001, second column): 81.539%
- YFP fluorescence quenching using CNL002 (1 uM CNL002): 73.79%
- YFP fluorescence quenching using ABT-126 (1 uM abt): 56.66%
- YFP fluorescence quenching using TC-6987 (1 uM tc6987): 73.37
- YFP fluorescence quenching using Varenicline (1 uM var, first column): 80.952
- YFP fluorescence quenching using Varenicline (1 uM var, second column): 79.329
- YFP fluorescence quenching using TC-6987 (10 uM tc6987): 78.18
- YFP fluorescence quenching using CNL002 (30 uM CNL002): 75.89%
- YFP fluorescence quenching using AZD-0328 (30 uM azd0328): 82.23%
- YFP fluorescence quenching using Facinicline (30 uM fac): 78.32
- YFP fluorescence quenching using TC-6987 (500 uM tc6987): 75.42
- percent quench of YFP fluorescence, 30 nM TC-6683: −16.28%
- percent quench of YFP fluorescence, 300 nM TC-6683: −11.73%
- percent quench of YFP fluorescence, 3 uM TC-6683: −2.38%
- percent quench of YFP fluorescence, 30 uM TC-6683: −9.77%
- percent quench of YFP fluorescence, 100 uM TC-6683: 0.97%
- percent quench of YFP fluorescence, 10 uM ach: 7.43%
- percent quench of YFP fluorescence, 100 uM ach: 73.57%
- percent quench of YFP fluorescence, 1 mM ach: 71.8%
- percent quench of YFP fluorescence, 3 mM ach: 74.49%
